{"source": "paper PMC4104964", "target": "yeast Mediator (yMED), core, devoid of the CKM (yeast (endogenous in strain BJ2168)) (UniProt P38782)", "experiment": "single-particle EM", "data": [{"substance": "recombinant GST-labeled CTD of RNAPII (from UniProt P04050 1-1733) (domain or fragment)", "values": [{"measurement": "fraction of single yMED images with GST-CTD density", "result": 10, "unit": "%"}]}]}
